From patent publication US20170081419A1 (AbbVie / Abbott, published 2017) come the findings set out here.

One may read the Kd as a measure of binding affinity in units of concentration.

Where a chain is given by its changes, count along the chain named.

Assay [1] addresses T1, human CD46 (recombinant antigen used in affinity and mapping experiments) (human, UniProt P15529 35-285, limits assumed).
T1 construct: also called CD46 antigen
T1 sequence (looked up): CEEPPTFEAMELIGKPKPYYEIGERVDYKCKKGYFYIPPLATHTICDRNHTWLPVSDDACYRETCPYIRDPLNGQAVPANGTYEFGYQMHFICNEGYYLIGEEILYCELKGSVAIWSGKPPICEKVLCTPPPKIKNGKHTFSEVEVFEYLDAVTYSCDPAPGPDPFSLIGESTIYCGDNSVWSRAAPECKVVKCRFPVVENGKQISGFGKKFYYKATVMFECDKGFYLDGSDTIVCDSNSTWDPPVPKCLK
Put plainly: SPR (Biacore), human CD46 antigen series, 1:1 Langmuir model. (In general: In SPR one partner is held on a chip, and binding of the other changes the refractive index at the surface.)

Assay [2] concerns the target human CD46 on the cell surface (human), P15529. Put plainly: cell-based or functional assay.
The next assay deals with T2, marmoset CD46 homolog (marmoset (Callithrix jacchus), UniProt Q8HYX8 33-285, limits assumed).
T2 sequence (looked up): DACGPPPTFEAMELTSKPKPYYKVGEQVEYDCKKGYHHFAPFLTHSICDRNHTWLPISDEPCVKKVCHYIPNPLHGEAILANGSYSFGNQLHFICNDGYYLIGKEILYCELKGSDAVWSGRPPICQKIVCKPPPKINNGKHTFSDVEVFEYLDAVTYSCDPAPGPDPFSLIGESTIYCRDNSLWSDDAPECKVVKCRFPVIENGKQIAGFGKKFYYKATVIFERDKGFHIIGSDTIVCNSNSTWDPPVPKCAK
Put plainly: ForteBIO, concentration series of recombinant monomeric CD46 homolog. On the technique in general: Biolayer interferometry detects binding as a change in optical thickness at a sensor tip.

For assay [3], the target named is T1, human CD46 (recombinant antigen used in …). Put plainly: bio-layer interferometry (ForteBIO, superscript F), antigen concentration series.
Procedure: (§1) With regard to the data, affinity was measured in three ways to ensure accuracy. […] Second, the affinities and kinetic constants kₒₙ and koff of the selected modulators were then measured using bio-layer interferometry analysis on a ForteBIO RED (ForteBIO, Inc.) with a standard antigen concentration series. Finally, the affinity of selected modulators was measured by surface plasmon resonance (Biacore System, GE Healthcare). Based on a standard antigen concentration series and using a 1:1 Langmuir binding model, the Kd of the antibody binding to antigen and the kinetic constants kₒₙ and koff were determined.
Assay [4] shares this target. Put plainly: surface plasmon resonance (Biacore, superscript B), antigen concentration series, 1:1 Langmuir model.
Procedure: as §1

Procedure for marmoset CD46 homolog: Finally, cross-reactivity with regard to cynomolgus, marmoset, and squirrel monkey CD46 homologs were evaluated in ForteBIO using a concentration series with recombinantly expressed, monomeric CD46 antigens.

B1: humanized antibody hSC1.N71 (antibody, human IgG1, V domains shown)
VH: QVQLQESGPGLVKPSETLSLTCTVSGGSVSSYDISWIRQPPGKGLEWIGVIWTDGGTNYNSAFMSRVTISVDTSKNQFSLKLSSVTAADTAVYYCARVYDGYPWFAYWGQGTLVTVSS
VL: DIQMTQSPSSLSASVGDRVTITCRASQGISNYLNWYQQKPGKAPKLLIYYTSSLHSGVPSRFSGSGSGTDFTLTISSLQPEDFATYYCQQYIKLPWTFGGGTKLEIKR
notes: also called humanized SC1.N71; human SC1.N71
As for B1, in assay [1], the dissociation constant Kd amounted to 0.7 nM. In assay [2], this molecule came in with an effective concentrations causing 50% cell death (EC50), HEK-293T cells, streptavidin-saporin of 0.0266 nM.

B2: humanized antibody hSC1.N149 (antibody, human IgG1, V domains shown)
VH: QVQLVQSGAEVKKPGASVKVSCKASGYTFTDYNMDWVRQAPGQGLEWMGDINPNNGDTFYNQKFKGRVTMTTDTSTSTAYMELRSLRSDDTAVYYCARSKYDNYPWFAYWGQGTLVTVSS
VL: B1 VL with G28D, S30N
In assay [2], B2 showed an effective concentrations causing 50% cell death (EC50), HEK-293T cells, streptavidin-saporin of 0.174 nM.

B3: N95.1 (antibody, IgG2a, V domains shown)
VH: QVQLQQSGAELARPGASVKLSCKASDYTFTSYGISWVKQRTGQGLEWIGEIFPRSGNTYYNEKFKGKATLTADKSSSTAYMELRSLTSEDSAVYFCARGLGGAMDYWGQGTSVIVSS
VL: DIVMTQAAPSVPVTPGESVSISCRSSKSLLHSNGNTYLYWFLQRPGQSPQLLIYRMSNLASGVPDRFSGSGSGTTFTLRISGVEAEDVGVYYCMQHLEYPCTFGGGTKLEIKR
notes: .1 is the subclone suffix; also called SC1.N95
In the case of B3, in the assay with marmoset CD46 homolog, the binding result is recorded as “no binding”. The dissociation constant (Kd) in assay [3] came to 8 nM.

B4: N135.1 (antibody, IgG2b, V domains shown)
VH: DVQLVESGGGLVQPGGSRKLSCAASGFTFSSFGMHWVRQAPEKGLEWVAYISSATSAIYYADTVKGRFTISRDNPTNTLFLQMTSLRSEDTAMYYCARKGNNYFDYWGQGTTLTVSS
VL: QIVLTQSPAIMSASPGEKVTLSCSATSSVTYMHWLQQKPGSSPKPWIYRTSNLASGVPARFRGSGSGTSYSLTISSMEAEDAATYYCQQYHSYPPTFGGGTKLEIKR
notes: .1 is the subclone suffix; also called SC1.N135
For B4, in the assay with marmoset CD46 homolog, the binding result is recorded as “no binding”. Besides, the Kd in assay [3] was 1 nM.

B5: N146.2 (antibody, IgG1, V domains shown)
VH: EVQLVESGGGLVKPGGSLKLSCAASGFTFSSFGMSWVRQTPEKRLEWVAAINSNGGNTYYSDTVKGRFTISRDNAKNTLYLQMSSLRSADTALYYCARVVHFDVWGAGTTVTVSS
VL: AIQMTQTTSSLSASLGDRVTISCSASQDISNYLNWYQQKPDGTVKLLIYYTSSLHSGVPSRFSGSGSGTDYSLTISNVEPEDVATYYCQQYSELPYTFGGGTKLEINR
notes: Kept apart from m10, which is the mouse/human chimeric form of the same clone; also called SC1.N146 (murine hybridoma clone)
For B5, the binding result with marmoset CD46 homolog is “no binding”. Also, the dissociation constant (Kd) in assay [4] is 1.5 nM.

B6: N50.3 (antibody, IgG2b, V domains shown)
VH: EVLLHQSGPELVKPGASVKIPCKASGYTFTDYNMDWVKQSHGKSLEWIGDINPNNGGTFYNQKFKGKATLTVHKSSSTAFMELRSLTSEDTAVYYCTRSKYDNYPWFAYWGQGTLVTVSA
VL: DIQMTQITSSLSASLGDRVTISCSASQGISNYLNWYQQKPDGTVKLLIYYTSSLHSGVPSRFRGSGSGTNYSLTISNLEPEDIATYYCQQYIKLPWTFGGGTKLEIKR
notes: .3 is the subclone suffix; also called SC1.N50
Take B6: the Kd in assay [3] is 1 nM.
